Test results as given in the supplement of paper PMC5998384.

Experiments:
HeLa Kyoto [1] = experiment: thermal stability score vs G1/S (z-score of summed log2 fold changes over temperatures); higher = more thermally stable than in G1/S
HeLa Kyoto [2] = experiment: melting temperature (median over replicates), in situ; higher = more thermally stable
HeLa Kyoto [3] = experiment: solubility change mitosis vs G1/S (difference of NP-40 vs SDS log2 ratios) (log2 ratio difference); higher = more soluble in mitosis
HeLa Kyoto [4] = experiment: solubility in G1/S (NP-40 vs SDS abundance) (log2 ratio); higher = more soluble; conditions: cell cycle stage: G1/S
[5] = cell cycle stage: early G1 (4.5 h after nocodazole release)
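For melting temperature (median over replicates), in situ in this document: HeLa Kyoto cells synchronized by double thymidine or nocodazole block, proteins quantified by TMT10plex mass spectrometry, three independent biological replicates.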
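For solubility change mitosis vs G1/S (difference of NP-40 vs SDS log2 ratios) in this document: synchronized HeLa Kyoto cells (double thymidine block for G1/S, nocodazole release for mitosis), protein amounts in NP-40 versus SDS lysates quantified by mass spectrometry, three biological replicates.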
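For solubility in G1/S (NP-40 vs SDS abundance) in this document: HeLa Kyoto cells arrested at G1/S by double thymidine block, proteins quantified by TMT10plex mass spectrometry in mild NP-40 versus SDS extracts, three biological replicates.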
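For thermal stability score vs G1/S (z-score of summed log2 fold changes over temperatures) in this document: synchronized HeLa Kyoto cells, proteins quantified by TMT10plex mass spectrometry, three biological replicates, mitosis taken 0.5 h after nocodazole release, G1/S directly after double thymidine block.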

Sequence | thermal stability score (HeLa Kyoto [1]; [5]) | thermal stability score (HeLa Kyoto [1]; cell cycle stage: mitosis) | melting temperature (HeLa Kyoto [2]; cell cycle stage: G1/S) | melting temperature (HeLa Kyoto [2]; cell cycle stage: mitosis) | solubility change mitosis (log2) (HeLa Kyoto [3]) | solubility in G1/S (log2) (HeLa Kyoto [4])
MASCASIDIEDATQHLRDILKLDRPAGGPSAESPRPSSAYNGDLNGLLVPDPLCSGDSTSANKTGLRTMPPINLQEKQVICLSGDDSSTCIGILAKEVEIVASSDSSISSKARGSNKVKIQPVAKYDWEQKYYYGNLIAVSNSFLAYAIRAANNGSAMVRVISVSTSERTLLKGFTGSVADLAFAHLNSPQLACLDEAGNLFVWRLALVNGKIQEEILVHIRQPEGTPLNHFRRIIWCPFIPEESEDCCEESSPTVALLHEDRAEVWDLDMLRSSHSTWPVDVSQIKQGFIVVKGHSTCLSEGALSPDGTVLATASHDGYVKFWQIYIEGQDEPRCLHEWKPHDGRPLSCLLFCDNHKKQDPDVPFWRFLITGADQNRELKMWCTVSWTCLQTIRFSPDIFSSVSVPPSLKVCLDLSAEYLILSDVQRKVLYVMELLQNQEEGHACFSSISEFLLTHPVLSFGIQVVSRCRLRHTEVLPAEEENDSLGADGTHGAGAMESAAGVLIKLFCVHTKALQDVQIRFQPQLNPDVVAPLPTHTAHEDFTFGESRPELGSEGLGSAAHGSQPDLRRIVELPAPADFLSLSSETKPKLMTPDAFMTPSASLQQITASPSSSSSGSSSSSSSSSSSLTAVSAMSSTSAVDPSLTRPPEELTLSPKLQLDGSLTMSSSGSLQASPRGLLPGLLPAPADKLTPKGPGQVPTATSALSLELQEVEPLGLPQASPSRTRSPDVISSASTALSQDIPEIASEALSRGFGSSAPEGLEPDSMASAASALHLLSPRPRPGPELGPQLGLDGGPGDGDRHNTPSLLEAALTQEASTPDSQVWPTAPDITRETCSTLAESPRNGLQEKHKSLAFHRPPYHLLQQRDSQDASAEQSDHDDEVASLASASGGFGTKVPAPRLPAKDWKTKGSPRTSPKLKRKSKKDDGDAAMGSRLTEHQVAEPPEDWPALIWQQQRELAELRHSQEELLQRLCTQLEGLQSTVTGHVERALETRHEQEQRRLERALAEGQQRGGQLQEQLTQQLSQALSSAVAGRLERSIRDEIKKTVPPCVSRSLEPMAGQLSNSVATKLTAVEGSMKENISKLLKSKNLTDAIARAAADTLQGPMQAAYREAFQSVVLPAFEKSCQAMFQQINDSFRLGTQEYLQQLESHMKSRKAREQEAREPVLAQLRGLVSTLQSATEQMAATVAGSVRAEVQHQLHVAVGSLQESILAQVQRIVKGEVSVALKEQQAAVTSSIMQAMRSAAGTPVPSAHLDCQAQQAHILQLLQQGHLNQAFQQALTAADLNLVLYVCETVDPAQVFGQPPCPLSQPVLLSLIQQLASDLGTRTDLKLSYLEEAVMHLDHSDPITRDHMGSVMAQVRQKLFQFLQAEPHNSLGKAARRLSLMLHGLVTPSLP [EDC4] | 0.116 | 2.4 | 49.6 °C | 50.1 °C | -0.158 | 0.013
MASDEGKLFVGGLSFDTNEQSLEQVFSKYGQISEVVVVKDRETQRSRGFGFVTFENIDDAKDAMMAMNGKSVDGRQIRVDQAGKSSDNRSRGYRGGSAGGRGFFRGGRGRGRGFSRGGGDRGYGGNRFESRSGGYGGSRDYYSSRSQSGGYSDRSSGGSYRDSYDSYATHNE [CIRBP] | -0.492 | -2.78 | 52.8 °C | 53 °C | 0.112 | -0.000215
MASEDIAKLAETLAKTQVAGGQLSFKGKSLKLNTAEDAKDVIKEIEDFDSLEALRLEGNTVGVEAARVIAKALEKKSELKRCHWSDMFTGRLRTEIPPALISLGEGLITAGAQLVELDLSDNAFGPDGVQGFEALLKSSACFTLQELKLNNCGMGIGGGKILAAALTECHRKSSAQGKPLALKVFVAGRNRLENDGATALAEAFRVIGTLEEVHMPQNGINHPGITALAQAFAVNPLLRVINLNDNTFTEKGAVAMAETLKTLRQVEVINFGDCLVRSKGAVAIADAIRGGLPKLKELNLSFCEIKRDAALAVAEAMADKAELEKLDLNGNTLGEEGCEQLQEVLEGFNMAKVLASLSDDEDEEEEEEGEEEEEEAEEEEEEDEEEEEEEEEEEEEEPQQRGQGEKSATPSRKILDPNTGEPAPVLSSPPPADVSTFLAFPSPEKLLRLGPKSSVLIAQQTDTSDPEKVVSAFLKVSSVFKDEATVRMAVQDAVDALMQKAFNSSSFNSNTFLTRLLVHMGLLKSEDKVKAIANLYGPLMALNHMVQQDYFPKALAPLLLAFVTKPNSALESCSFARHSLLQTLYKV [RANGAP1] | 0.55 | 2.63 | 48.6 °C | 49 °C | 0.199 | 0.166
MASEELQKDLEEVKVLLEKATRKRVRDALTAEKSKIETEIKNKMQQKSQKKAELLDNEKPAAVVAPITTGYTVKISNYGWDQSDKFVKIYITLTGVHQVPTENVQVHFTERSFDLLVKNLNGKSYSMIVNNLLKPISVEGSSKKVKTDTVLILCRKKVENTRWDYLTQVEKECKEKEKPSYDTETDPSEGLMNVLKKIYEDGDDDMKRTINKAWVESREKQAKGDTEF [CACYBP] | 0.00133 | -1.11 | 52.2 °C | 52.2 °C | -0.0888 | 0.412
MASEQDVRARLQRAGQEHLLRFWAELAPEPRAALLAELALLEPEALREHCRRAAEACARPHGPPPDLAARLRPLPPERVGRASRSDPETRRRWEEEGFRQISLNKVAVLLLAGGQGTRLGVTYPKGMYRVGLPSRKTLYQLQAERIRRVEQLAGERHGTRCTVPWYVMTSEFTLGPTAEFFREHNFFHLDPANVVMFEQRLLPAVTFDGKVILERKDKVAMAPDGNGGLYCALEDHKILEDMERRGVEFVHVYCVDNILVRLADPVFIGFCVLQGADCGAKVVEKAYPEEPVGVVCQVDGVPQVVEYSEISPETAQLRASDGSLLYNAGNICNHFFTRGFLKAVTREFEPLLKPHVAVKKVPYVDEEGNLVKPLKPNGIKMEKFVFDVFRFAKNFAALEVLREEEFSPLKNAEPADRDSPRTARQALLTQHYRWALRAGARFLDAHGAWLPELPSLPPNGDPPAICEISPLVSYSGEGLEVYLQGREFQSPLILDEDQAREPQLQES [UAP1L1] | -0.582 | -0.781 | 52.3 °C | 53.1 °C | -0.0981 | 0.127
MASERLPNRPACLLVASGAAEGVSAQSFLHCFTMASTAFNLQVATPGGKAMEFVDVTESNARWVQDFRLKAYASPAKLESIDGARYHALLIPSCPGALTDLASSGSLARILQHFHSESKPICAVGHGVAALCCATNEDRSWVFDSYSLTGPSVCELVRAPGFARLPLVVEDFVKDSGACFSASEPDAVHVVLDRHLVTGQNASSTVPAVQNLLFLCGSRK [PDDC1] | -1.01 | -0.729 | 55 °C | 55.4 °C | -0.0189 | 0.169
MASGAYNPYIEIIEQPRQRGMRFRYKCEGRSAGSIPGEHSTDNNRTYPSIQIMNYYGKGKVRITLVTKNDPYKPHPHDLVGKDCRDGYYEAEFGQERRPLFFQNLGIRCVKKKEVKEAIITRIKAGINPFNVPEKQLNDIEDCDLNVVRLCFQVFLPDEHGNLTTALPPVVSNPIYDNRAPNTAELRICRVNKNCGSVRGGDEIFLLCDKVQKDDIEVRFVLNDWEAKGIFSQADVHRQVAIVFKTPPYCKAITEPVTVKMQLRRPSDQEVSESMDFRYLPDEKDTYGNKAKKQKTTLLFQKLCQDHVETGFRHVDQDGLELLTSGDPPTLASQSAGITVNFPERPRPGLLGSIGEGRYFKKEPNLFSHDAVVREMPTGVSSQAESYYPSPGPISSGLSHHASMAPLPSSSWSSVAHPTPRSGNTNPLSSFSTRTLPSNSQGIPPFLRIPVGNDLNASNACIYNNADDIVGMEASSMPSADLYGISDPNMLSNCSVNMMTTSSDSMGETDNPRLLSMNLENPSCNSVLDPRDLRQLHQMSSSSMSAGANSNTTVFVSQSDAFEGSDFSCADNSMINESGPSNSTNPNSHGFVQDSQYSGIGSMQNEQLSDSFPYEFFQV [REL] | -0.962 | -0.219 | 49.5 °C | 50.5 °C | -0.0913 | -0.0913
MASGNARIGKPAPDFKATAVVDGAFKEVKLSDYKGKYVVLFFYPLDFTFVCPTEIIAFSNRAEDFRKLGCEVLGVSVDSQFTHLAWINTPRKEGGLGPLNIPLLADVTRRLSEDYGVLKTDEGIAYRGLFIIDGKGVLRQITVNDLPVGRSVDEALRLVQAFQYTDEHGEVCPAGWKPGSDTIKPNVDDSKEYFSKHN [PRDX2] | -3.24 | -3.32 | 55 °C | 55.1 °C | 0.0464 | 0.354
MASKRALVILAKGAEEMETVIPVDVMRRAGIKVTVAGLAGKDPVQCSRDVVICPDASLEDAKKEGPYDVVVLPGGNLGAQNLSESAAVKEILKEQENRKGLIAAICAGPTALLAHEIGFGSKVTTHPLAKDKMMNGGHYTYSENRVEKDGLILTSRGPGTSFEFALAIVEALNGKEVAAQVKAPLVLKD [PARK7] | 1.01 | -0.859 | 56.8 °C | 57.4 °C | 0.0696 | 0.529
MASLDRVKVLVLGDSGVGKSSLVHLLCQNQVLGNPSWTVGCSVDVRVHDYKEGTPEEKTYYIELWDVGGSVGSASSVKSTRAVFYNSVNGIIFVHDLTNKKSSQNLRRWSLEALNRDLVPTGVLVTNGDYDQEQFADNQIPLLVIGTKLDQIHETKRHEVLTRTAFLAEDFNPEEINLDCTNPRYLAAGSSNAVKLSRFFDKVIEKRYFLREGNQIPGFPDRKRFGAGTLKSLHYD [RABL3] | -0.0942 | -1.09 | 52 °C | 51.9 °C | -0.0274 | 0.0735
MASLSLAPVNIFKAGADEERAETARLTSFIGAIAIGDLVKSTLGPKGMDKILLSSGRDASLMVTNDGATILKNIGVDNPAAKVLVDMSRVQDDEVGDGTTSVTVLAAELLREAESLIAKKIHPQTIIAGWREATKAAREALLSSAVDHGSDEVKFRQDLMNIAGTTLSSKLLTHHKDHFTKLAVEAVLRLKGSGNLEAIHIIKKLGGSLADSYLDEGFLLDKKIGVNQPKRIENAKILIANTGMDTDKIKIFGSRVRVDSTAKVAEIEHAEKEKMKEKVERILKHGINCFINRQLIYNYPEQLFGAAGVMAIEHADFAGVERLALVTGGEIASTFDHPELVKLGSCKLIEEVMIGEDKLIHFSGVALGEACTIVLRGATQQILDEAERSLHDALCVLAQTVKDSRTVYGGGCSEMLMAHAVTQLANRTPGKEAVAMESYAKALRMLPTIIADNAGYDSADLVAQLRAAHSEGNTTAGLDMREGTIGDMAILGITESFQVKRQVLLSAAEAAEVILRVDNIIKAAPRKRVPDHHPC [CCT2] | -0.324 | -1.07 | 54.1 °C | 53.1 °C | -0.0739 | 0.193
MASPGCLWLLAVALLPWTCASRALQHLDPPAPLPLVIWHGMGDSCCNPLSMGAIKKMVEKKIPGIYVLSLEIGKTLMEDVENSFFLNVNSQVTTVCQALAKDPKLQQGYNAMGFSQGGQFLRAVAQRCPSPPMINLISVGGQHQGVFGLPRCPGESSHICDFIRKTLNAGAYSKVVQERLVQAEYWHDPIKEDVYRNHSIFLADINQERGINESYKKNLMALKKFVMVKFLNDSIVDPVDSEWFGFYRSGQAKETIPLQETSLYTQDRLGLKEMDNAGQLVFLATEGDHLQLSEEWFYAHIIPFLG [PPT1] | 0.0933 | -1.67 | 55.1 °C | 55.2 °C | -0.105 | 0.426
